B2: Plasminogen (ligand, UniProt P00747 20-810, looked up)
chain: EPLDDYVNTQGASLFSVTKKQLGAGSIEECAAKCEEDEEFTCRAFQYHSKEQQCVIMAENRKSSIIIRMRDVVLFEKKVYLSECKTGNGKNYRGTMSKTKNGITCQKWSSTSPHRPRFSPATHPSEGLEENYCRNPDNDPQGPWCYTTDPEKRYDYCDILECEEECMHCSGENYDGKISKTMSGLECQAWDSQSPHAHGYIPSKFPNKNLKKNYCRNPDRELRPWCFTTDPNKRWELCDIPRCTTPPPSSGPTYQCLKGTGENYRGNVAVTVSGHTCQHWSAQTPHTHNRTPENFPCKNLDENYCRNPDGKRAPWCHTTNSQVRWEYCKIPSCDSSPVSTEQLAPTAPPELTPVVQDCYHGDGQSYRGTSSTTTTGKKCQSWSSMTPHRHQKTPENYPNAGLTMNYCRNPDADKGPWCFTTDPSVRWEYCNLKKCSGTEASVVAPPPVVLLPDVETPSEEDCMFGNGKGYRGKRATTVTGTPCQDWAAQEPHRHSIFTPETNPRAGLEKNYCRNPDGDVGGPWCYTTNPRKLYDYCDVPQCAAPSFDCGKPQVEPKKCPGRVVGGCVAHPHSWPWQVSLRTRFGMHFCGGTLISPEWVLTAAHCLEKSPRPSSYKVILGAHQEVNLEPHVQEIEVSRLFLEPTRKDIALLKLSSPAVITDKVIPACLPSPNYVVADRTECFITGWGETQGTFGAGLLKEAQLPVIENKVCNRYEFLNGRVQSTELCAGHLAGGTDSCQGDSGGPLVCFEKDKYILQGVTSWGLGCARPNKPGVYVRVSRFVTWIEGVMRNN
modifications: directly biotinylated in the assays of Examples 7-9; coupled to Sepharose in Example 1
notes: The same entry is used for unlabelled, biotinylated and Sepharose-coupled plasminogen; also called Plg; biotinylated plasminogen
B3: Plg-RKT carboxyl-terminal peptide CEQSKLFSDK (SEQ ID NO: 33) (peptide)
peptide: CEQSKLFSDK
modifications: also: coupled to bovine serum albumin (BSA), attachment site not given here
notes: also called C-terminal peptide of mouse Plg-RKT; Plg-RKT polypeptide

The target in assay [1] is B2. The assay is described as follows: ELISA, detection control: plasminogen bound to BSA-coupled peptide, isotype control instead of anti-plasminogen MAb. Background: An ELISA detects its analyte on a solid surface through an enzyme-linked reagent.
Assay [2] concerns the target B2. The assay is described as follows: competition ELISA, soluble peptide against biotinylated plasminogen on immobilized …-BSA.
Assay [3] addresses B3. The assay is described as follows: ELISA on BSA-coupled peptide, anti-plasminogen MAb detection. The source says: Our isolation method was consistent with exposure of the carboxyl-terminus of Plg-RKT (with its carboxyl-terminal lysine) on the cell surface and also with the ability of the carboxyl-terminal domain to bind to plasminogen. For verification, we tested whether a synthetic peptide, corresponding to the C-terminus of Plg-RKT could bind plasminogen. The peptide, […] (SEQ ID NO: 33) corresponding to the ten C-terminal amino acids of Plg-RKT with cysteine substituted for R₁₃₈) was coupled to bovine serum albumin (BSA) and then coated onto wells of microtiter plates at 10 μg/ml. The wells were blocked with 5% BSA. Plasminogen (0.2 μM) was incubated with the wells, followed by our anti-plasminogen MAb ³⁶ and detection with HRP-conjugated goat anti-mouse IgG (Biosource, Camarillo, Calif.). Plasminogen bound to the peptide in a concentration dependent manner with 50% maximal binding achieved at a plasminogen concentration of ˜10 nM. The binding was specific because it was blocked in the presence of epsilon-aminocaproic acid (EACA), consistent with the ability of EACA to inhibit plasminogen binding to differentiated Hoxa9-ER4 cells. […] In controls for the detection method, O.D.₄₉₀ values obtained using an isotype control antibody or in the absence of added plasminogen were <5% of the values for plasminogen binding to the BSA-coupled peptide detected with anti-plasminogen MAb.

In assay [4] the target is T1, plasminogen fragment K1-3 (UniProt P00747 99-357).
T1 construct: range 79-337 or 79-353; it may not count on the precursor entry
The assay is described as follows: competition ELISA against biotinylated plasminogen on immobilized peptide. The protocol:
(§1) 9. Recognition of Plg-RKT by Plasminogen Fragments in Other Assays to Define the ligand recognition specificity of Plg-RKT for plasminogen. the Plg-RKT polypeptide, […] (SEQ ID NO: 33), was coupled to microtiter wells. Plasminogen was directly biotinylated and then incubated with the immobilized peptide and detected with streptavidin-HRP, as above. (Plasminogen bound to the peptide in a concentration-dependent manner. In controls for specificity, biotinylated-Plg binding was competed by unlabeled Plg and no biotinylated-Plg binding to the reverse peptide was detected.) Plasminogen domains containing disulfide bonded kringle (K) structures were obtained by elastase digestion as described ³⁹. (K1-3 is comprised of the plasminogen amino acid sequences, Tyr⁷⁹-Val³³⁷ or Tyr⁷⁹-Val³⁵³. K4 is contained within the plasminogen amino acid sequences, Val³⁵⁴-Ala⁴³⁹. K5-PD is contained within the plasminogen amino acid sequences, Val⁴⁴²-Asn⁷⁹⁰ and contains kringle 5 as well as the latent protease domain.)

The next assay has as its target T2, plasminogen fragment K4 (UniProt P00747 374-459).
T2 construct: range 354-439
T2 sequence (looked up): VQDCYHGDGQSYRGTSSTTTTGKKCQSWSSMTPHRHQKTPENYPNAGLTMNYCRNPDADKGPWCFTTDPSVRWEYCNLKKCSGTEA
Described as above. The method, then:
as §1

One may read the IC50 as the concentration needed to halve the response being measured. Read a high IC50 as weaker potency. As a reminder, the EC50 is the concentration giving half of the maximal effect. Lower therefore signals greater potency.

Ends that are not written are not given here.

isotype control antibody (Example 4) had an O.D.490 as percent of the value with anti-plasminogen MAb in the assay with Plasminogen [1] of less than 5%.

B1: peptide CEQSRFFIDK (SEQ ID NO: 34), corresponding to the C terminus of human Plg-RKT (peptide)
peptide: CEQSRFFIDK
notes: also called wild type peptide
In the assay with Plasminogen [2], B1 yielded an IC50 of 1000 nM. In other words, the single-digit micromolar range.
The molecule B2 showed an EC50 in assay [3] of roughly 10 nM.
With B3, the binding result (in assay [4]; in the assay with plasminogen fragment K4) was “binds” throughout.
